Assay results from the RNAGym collection of RNA variant scans (doi:10.1073/pnas.2313332121).

B1: TPR t1 (parent)
chain: GACCAAUCUGCCCUCAGAGCUCGAGAACAUCUUCGGAUGCAGAGGAGGCAGGCUUCGGUGGCGCGAUAGCGCCAACGUCCUCAACCUCCAAUGCAUCCCACCACAUGAUGAUGCCUGAAGAGCCUUGGUUUUUUG

Variants of: B1
Assay: polymerase ribozyme fitness, log enrichment relative to wild type (log ratio); higher = more active; in vitro selection for triplet polymerase activity
Outline: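 Only genotypes with ≥10 input reads and ≥1 read per output were kept after Illumina sequencing of input and output libraries. These libraries were PCR-built, transcribed mutants of each subunit of a heterodimeric triplet polymerase ribozyme, each put through one triplicate in vitro selection round with frozen incubation at −7 °C, gel excision of extended constructs, streptavidin-bead capture and RT-PCR. Fitness is a logarithmic ratio of genotype enrichment to wild-type enrichment, from inverse-variance-weighted replicate averages, with the logarithm in base 2.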

Variant | polymerase ribozyme fitness (log ratio)
G52U A83U C98U | -2.49
G51U C62U U112G | -5.35
C53G C70A | -3.68
G52C G93A G113A A119G | -1.29
C53A C72G C88U C123G | 1.36
C53U C88A G110A U112G | -4.23
C53U G69U C70U C82U | -0.71
G51U G117A | -5.11
C53A A84U G117U C123G | -0.712
G51U C64U G117A U132A | -5.22
G52C C70A G117C | -5.92
G51A A68C C70G C102U G110A | -5.98
U54C G71A C102A C123A | -3.7
G52C C56U C82U A84C | 0.272
U54A A108U | -4.71
C53U C64U G93U | -1.53
C53G U92A | -3.48
C53A C124U U129G | -0.384
C53U C73G G113C U132C | -3.47
G51C G61U A74C C114A G117A | -7.43
G52A C73U | -0.414

Variant | polymerase ribozyme fitness (log ratio)
G51U C53U C88G | -2.23
C53G G71U | -0.129
G52A C86A A111C | -3.28
G52C U116C | -1.72
C53U C99U | -2.93
G52U C72U U78C A121C | 1.26
G52U C56U C62U U130A | -1.37
U54C G71A C85G C101U U112G G120C | -4.36
G52U A68G G77C | -4.82
U54A C70G | -2.37
G51C G52C | -2.79
U54A G113U C114G A121C | -2.43
G52U A95G | -0.694
C53U C80U U81C G120A | -3.73
G51A C72U C82U A83G C94U U126A | -2.93
U54C C80A U125A | -2.52
G52U G77C | -0.813
C53U G63A | -1.18
C53U G110U | -1.81
C53U G110C | -3.51
G52U U130C | -0.807

Variant | polymerase ribozyme fitness (log ratio)
U54A C62U C72G | -1.24
G52U C99U U132C | -4.08
G52A G57U C72U | -0.842
G51U G122A | -3.78
C53U G61A A105C | -2.22
G51C U78A U106A | -4.81
G52U C72U C80U C98U | -3.28
C53U G61C | 0.349
C53U C104U | 0.142
U54C U81C A95C | -0.789
C53U G63U A90C C104A A121G C123A | -4.29
C53A C82U C88G A118U | -0.344
C53G U54C A121C | 1.78
G51U G58U G63A G117C | -6.73
G52C C72U C86U C89U A105U | -4.77
G51U C53U G61U U130A | -3.08
C53G C123A | 0.261
C53G U78C C82U G120A | 0.0778
C53A G57C U78A U112A A119G | 2.05
C53A C114A | -1.87
U54C C72U C82U A83C C115G G117A U129C | -4.96

Variant | polymerase ribozyme fitness (log ratio)
G51A C82A | -4.73
C53A C72G | 0.124
U54C C56U U133G | 0.0417
C53A C56U U106C | -0.479
C53A G61A U78G | 0.644
C53A G71U C86U A100U G110U | -4.31
C53G C97U C104A A118G | -3.19
C53A C56A U87C G120C | 1.18
C53A G69U A105U | -0.0597
G51C C79U | -3.54
C53U U129A | -1.24
G51C G120C | -2.56
G51U C94G | -4.19
G51A G128A | -5.75
G51U G69U C88A C104U C123U | -0.711
G51U U54C U59G | -3.68
A50U U131A | -0.622
G52C C89G G127C | -2.37
C53A U78G C82A | 0.638
C53U C56U C89A G120A | -1.49
G52U C82A A83U G127C | -2.33
